Tests used:
Her1 (zebrafish) = experiment: MITOMI (mechanically induced trapping of molecular interactions); GFP-tagged Her protein from wheat germ extract immobilised on the microfluidic chip surface with anti-GFP antibody and washed with PBS; mCherry-tagged protein expressed on chip in wheat germ extract with 250 nM Cy5-labelled DNA oligomer; 3 h at room temperature; slope of free against bound mCherry signal as relative affinity
Her1-GFP (zebrafish) = experiment: MITOMI; conditions: PPARγ-mCherry present; MITOMI in wheat germ TnT SP6 expression extract, 3 h at room temperature; PBS wash of immobilized protein; DNA spotted with 1% BSA; salt and pH not stated
[1] = system: Her7 (coupled to chip, Fig 2D);Hes6-mCherry (zebrafish;zebrafish); experiment: MITOMI; conditions: MITOMI in wheat germ TnT SP6 expression extract, 3 h at room temperature; PBS wash of immobilized protein; DNA spotted with 1% BSA; salt and pH not stated

Her7 (natural protein)
fold lower relative affinity than the Her1 homodimer (Her1-mCherry on Her1-GFP) (Her1 (zebrafish)): 3 fold

MyoD (myogenic differentiation 1) (from UniProt Q90477 1-275) (natural protein)
fold lower relative affinity than the Her1 homodimer (Her1-mCherry on Her1-GFP) (Her1 (zebrafish)): 3 fold

seq 46 (control)
binding signal (relative to seq 2) (Her1-GFP (zebrafish)): 0.0105 | binding signal (relative to seq 2) [1]: 0.0131

seq 47 (control)
binding signal (relative to seq 2) (Her1-GFP (zebrafish)): 0.0105 | binding signal (relative to seq 2) [1]: 0.0137

Source: PMC3404119
